One assay deals with T1, human BUB1A kinase (human, UniProt O60566 1-1050, hyperphosphorylated in mitotically arrested cells (P-ser and P-thr the major phosphoamino acids; positions not given)).
T1 construct: Endogenous huBUB1A immunoprecipitated or blotted from Hela lysates; also called huBUB1A; hUBUB1A
Kind of assay: specificity test, method not named in the sentence (probably yeast two-hybrid).

For the next assay, the target named is T2, CENP-E (human, UniProt Q02224 1-2698, limits assumed).
T2 construct: Endogenous Hela protein in the immunoprecipitations; also called CENP-E kinetochore motor; endogenous CENP-E
The description is as above.

T2 sequence (Q02224 1-2698 limits assumed): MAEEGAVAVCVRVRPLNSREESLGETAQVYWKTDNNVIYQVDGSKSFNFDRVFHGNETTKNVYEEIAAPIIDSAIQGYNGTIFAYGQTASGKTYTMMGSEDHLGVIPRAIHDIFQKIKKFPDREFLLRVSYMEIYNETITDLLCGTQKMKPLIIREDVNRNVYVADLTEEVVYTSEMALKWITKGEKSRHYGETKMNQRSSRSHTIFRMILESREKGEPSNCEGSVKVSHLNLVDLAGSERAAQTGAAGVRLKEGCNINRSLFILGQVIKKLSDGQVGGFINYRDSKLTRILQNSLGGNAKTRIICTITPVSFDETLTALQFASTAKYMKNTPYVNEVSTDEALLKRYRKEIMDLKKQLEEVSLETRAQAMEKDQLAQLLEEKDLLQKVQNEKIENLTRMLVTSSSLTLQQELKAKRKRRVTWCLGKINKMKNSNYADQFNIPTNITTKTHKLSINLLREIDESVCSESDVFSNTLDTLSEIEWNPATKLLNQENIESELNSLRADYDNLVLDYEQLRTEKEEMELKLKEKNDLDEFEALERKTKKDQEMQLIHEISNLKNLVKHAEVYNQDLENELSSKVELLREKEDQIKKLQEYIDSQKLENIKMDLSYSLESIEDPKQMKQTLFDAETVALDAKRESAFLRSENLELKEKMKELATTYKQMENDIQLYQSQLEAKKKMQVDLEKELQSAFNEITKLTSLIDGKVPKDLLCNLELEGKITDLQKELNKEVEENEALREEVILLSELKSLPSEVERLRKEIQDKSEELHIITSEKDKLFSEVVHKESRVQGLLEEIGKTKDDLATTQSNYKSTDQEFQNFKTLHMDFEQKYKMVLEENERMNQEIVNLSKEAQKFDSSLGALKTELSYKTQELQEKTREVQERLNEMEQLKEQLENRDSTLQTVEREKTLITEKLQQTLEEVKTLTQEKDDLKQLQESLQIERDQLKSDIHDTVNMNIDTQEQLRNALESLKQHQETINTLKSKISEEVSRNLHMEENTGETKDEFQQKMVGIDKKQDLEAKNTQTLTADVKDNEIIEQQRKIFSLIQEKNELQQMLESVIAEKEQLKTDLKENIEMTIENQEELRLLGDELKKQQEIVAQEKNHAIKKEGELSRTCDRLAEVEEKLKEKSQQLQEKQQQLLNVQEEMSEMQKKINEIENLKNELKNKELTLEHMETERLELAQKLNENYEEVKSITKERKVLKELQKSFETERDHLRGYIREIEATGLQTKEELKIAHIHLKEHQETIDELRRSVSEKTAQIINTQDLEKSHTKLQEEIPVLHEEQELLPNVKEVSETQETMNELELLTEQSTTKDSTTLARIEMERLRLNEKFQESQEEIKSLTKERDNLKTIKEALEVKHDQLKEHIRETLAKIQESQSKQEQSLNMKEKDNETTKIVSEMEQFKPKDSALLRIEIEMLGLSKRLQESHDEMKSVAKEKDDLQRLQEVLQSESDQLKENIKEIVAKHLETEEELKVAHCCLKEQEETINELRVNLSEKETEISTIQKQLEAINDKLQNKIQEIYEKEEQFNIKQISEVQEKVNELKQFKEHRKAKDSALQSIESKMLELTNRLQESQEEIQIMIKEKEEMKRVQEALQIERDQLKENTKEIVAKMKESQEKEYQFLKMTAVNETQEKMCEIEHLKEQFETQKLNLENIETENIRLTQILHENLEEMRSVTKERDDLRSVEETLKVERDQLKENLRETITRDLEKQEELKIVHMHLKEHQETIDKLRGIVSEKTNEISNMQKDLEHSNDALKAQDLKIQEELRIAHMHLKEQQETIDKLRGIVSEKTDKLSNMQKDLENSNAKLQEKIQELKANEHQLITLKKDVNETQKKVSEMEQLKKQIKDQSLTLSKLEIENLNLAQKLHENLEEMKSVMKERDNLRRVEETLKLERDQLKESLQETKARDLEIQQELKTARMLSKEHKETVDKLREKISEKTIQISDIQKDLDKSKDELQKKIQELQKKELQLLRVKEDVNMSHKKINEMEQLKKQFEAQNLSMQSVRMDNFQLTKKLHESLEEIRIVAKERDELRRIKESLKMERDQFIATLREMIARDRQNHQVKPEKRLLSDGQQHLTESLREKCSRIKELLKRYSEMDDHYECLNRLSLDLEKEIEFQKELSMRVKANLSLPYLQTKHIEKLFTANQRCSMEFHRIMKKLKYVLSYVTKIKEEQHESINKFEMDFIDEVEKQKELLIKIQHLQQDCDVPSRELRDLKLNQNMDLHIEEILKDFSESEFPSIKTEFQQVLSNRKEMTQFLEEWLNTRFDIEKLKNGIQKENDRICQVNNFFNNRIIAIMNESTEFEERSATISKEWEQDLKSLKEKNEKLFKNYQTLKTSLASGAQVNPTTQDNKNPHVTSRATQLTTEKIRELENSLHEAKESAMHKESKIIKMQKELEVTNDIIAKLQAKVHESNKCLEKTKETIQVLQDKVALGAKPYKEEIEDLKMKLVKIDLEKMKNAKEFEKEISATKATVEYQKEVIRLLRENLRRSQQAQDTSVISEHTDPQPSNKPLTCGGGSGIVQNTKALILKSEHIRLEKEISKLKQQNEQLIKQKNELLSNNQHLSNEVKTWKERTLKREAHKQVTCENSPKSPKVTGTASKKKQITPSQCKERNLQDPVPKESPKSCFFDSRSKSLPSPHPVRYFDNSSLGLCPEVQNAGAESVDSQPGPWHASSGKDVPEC
T1 sequence (O60566 whole entry R349Q/E1018K): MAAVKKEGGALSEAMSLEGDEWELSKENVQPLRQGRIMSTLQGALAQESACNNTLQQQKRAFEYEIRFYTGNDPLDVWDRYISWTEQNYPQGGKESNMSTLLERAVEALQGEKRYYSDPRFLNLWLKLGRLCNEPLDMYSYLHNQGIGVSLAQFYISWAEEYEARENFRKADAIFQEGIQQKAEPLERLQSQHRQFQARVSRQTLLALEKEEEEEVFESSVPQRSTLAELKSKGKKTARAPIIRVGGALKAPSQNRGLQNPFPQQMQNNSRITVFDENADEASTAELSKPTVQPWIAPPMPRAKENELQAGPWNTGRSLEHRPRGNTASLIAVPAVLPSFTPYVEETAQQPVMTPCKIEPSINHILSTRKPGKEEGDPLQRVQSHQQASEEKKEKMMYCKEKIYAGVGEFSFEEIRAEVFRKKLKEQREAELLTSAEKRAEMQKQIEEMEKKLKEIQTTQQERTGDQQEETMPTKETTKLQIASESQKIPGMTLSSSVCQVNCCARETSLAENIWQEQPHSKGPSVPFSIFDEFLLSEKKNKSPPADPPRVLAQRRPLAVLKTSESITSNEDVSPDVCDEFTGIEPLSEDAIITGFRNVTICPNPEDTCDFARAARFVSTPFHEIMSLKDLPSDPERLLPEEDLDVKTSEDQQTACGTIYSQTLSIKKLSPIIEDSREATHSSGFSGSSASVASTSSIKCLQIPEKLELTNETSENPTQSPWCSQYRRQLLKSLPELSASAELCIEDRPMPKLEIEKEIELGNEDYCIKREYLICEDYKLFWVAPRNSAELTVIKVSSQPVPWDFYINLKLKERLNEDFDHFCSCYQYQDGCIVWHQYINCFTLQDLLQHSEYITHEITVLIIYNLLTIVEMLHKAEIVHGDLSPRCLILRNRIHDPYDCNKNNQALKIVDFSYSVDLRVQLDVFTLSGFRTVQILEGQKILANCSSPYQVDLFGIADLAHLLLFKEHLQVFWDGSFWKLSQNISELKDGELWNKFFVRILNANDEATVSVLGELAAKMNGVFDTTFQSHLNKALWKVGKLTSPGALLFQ

B1: CENP-F (other, UniProt P49454 2542-3114, looked up)
chain: SQVEGEHQLWKEQNLELRNLTVELEQKIQVLQSKNASLQDTLEVLQSSYKNLENELELTKMDKMSFVEKVNKMTAKETELQREMHEMAQKTAELQEELSGEKNRLAGELQLLLEEIKSSKDQLKELTLENSELKKSLDCMHKDQVEKEGKVREEIAEYQLRLHEAEKKHQALLLDTNKQYEVEIQTYREKLTSKEECLSSQKLEIDLLKSSKEELNNSLKATTQILEELKKTKMDNLKYVNQLKKENERAQGKMKLLIKSCKQLEEEKEILQKELSQLQAAQEKQKTGTVMDTKVDELTTEIKELKETLEEKTKEADEYLDKYCSLLISHEKLEKAKEMLETQVAHLCSQQSKQDSRGSPLLGPVVPGPSPIPSVTEKRLSSGQNKASGKRQRSSGIWENGRGPTPATPESFSKKSKKAVMSGIHPAEDTEGTEFEPEGLPEVVKKGFADIPTGKTSPYILRRTTMATRTSPRLAAQKLALSPLSLGKENLAESSKPTAGGSRSQKVKVAQRSPVDSGTILREPTTKSVPVNNLPERSPTDSPREGLRVKRGRLVPSPKAGLESNGSENCKVQ
On to B1, for which the binding result with human BUB1A kinase is given as “no binding”.

B2: human BUB1B kinase (enzyme)
chain: MDTPENVLQMLEAHMQSYKGNDPLGEWERYIQWVEENFPENKEYLITLLEHLMKEFLDKKKYHNDPRFISYCLKFAEYNSDLHQFFEFLYNHGIGTLSSPLYIAWAGHLEAQGELQHASAVLQRGIQNQAEPREFLQQQYRLFQTRLTETHLPAQARTSEPLHNVQVLNQMITSKSNPGNNMACISKNQGSELSGVISSACDKESNMERRVITISKSEYSVHSSLASKVDVEQVVMYCKEKLIRGESEFSFEELRAQKYNQRRKHEQWVNEDRHYMKRKEANAFEEQLLKQKMDELHKKLHQVVETSHEDLPASQERSEVNPARMGPSVGSQQELRAPCLPVTYQQTPVNMEKNPREAPPVVPPLANAISAALVSPATSQSIAPPVPLKAQTVTDSMFAVASKDAGCVNKSTHEFKPQSGAEIKEGCETHKVANTSSFHTTPNTSLGMVQATPSKVQPSPTVHTKEALGFIMNMFQAPTLPDISDDKDEWQSLDQNEDAFEAQFQKNVRSSGAWGVNKIISSLSSAFHVFEDGNKENYGLPQPKNKPTGARTFGERSVSRLPSKPKEEVPHAEEFLDDSTVWGIRCNKTLAPSPKSPGDFTSAAQLASTPFHKLPVESVHILEDKENVVAKQCTQATLDSCEENMVVPSRDGKFSPIQEKSPKQALSSHMYSASLLRLSQPAAGGVLTCEAELGVEACRLTDTDAAIAEDPPGSAAIAEDPPDAIAGLQAEWMQMSSLGTVDAPNFIVGNPWDDKLIFKLLSGLSKPVSSYPNTFEWQCKLPAIKPKTEFQLGSKLVYVHHLLGEGAFAQVYEATQGDLNDAKNKQKFVLKVQKPANPWEFYIGTQLMERLKPSMQHMFMKFYSAHLFQNGSVLVGELYSYGTLLNAINLYKNTPEKVMPQGLVISFAMRMLYMIEQVHDCEIIHGDIKPDNFILGNGFLEQDDEDDLSAGLALIDLGQSIDMKLFPKGTIFTAKCETSGFQCVEMLSNKPWNYQIDYFGVAATVYCMLFGTYMKVKNEGGECKPEGLFRRLPHLDMWNEFFHVMLNIPDCHHLPSLDLLRQKLKKVFQQHYTNKIRALRNRLIVLLLECKRSRK
notes: Endogenous protein in the immunoprecipitations; also called huBUB1B
Turning to B2, the binding result with CENP-E was “no binding”.

The record behind these values is patent US6593098 (FOX CHASE CANCER CENTER, dated 2003).
